From article doi:10.1101/2025.08.08.669345

Key:
[1] = molecular target: mouse melanocortin 1 receptor (mouse) (UniProt Q01727)
[2] = molecular target: mouse melanocortin 4 receptor (mouse) (UniProt P56450)
UniProt P56450, sequence (P56450 whole entry): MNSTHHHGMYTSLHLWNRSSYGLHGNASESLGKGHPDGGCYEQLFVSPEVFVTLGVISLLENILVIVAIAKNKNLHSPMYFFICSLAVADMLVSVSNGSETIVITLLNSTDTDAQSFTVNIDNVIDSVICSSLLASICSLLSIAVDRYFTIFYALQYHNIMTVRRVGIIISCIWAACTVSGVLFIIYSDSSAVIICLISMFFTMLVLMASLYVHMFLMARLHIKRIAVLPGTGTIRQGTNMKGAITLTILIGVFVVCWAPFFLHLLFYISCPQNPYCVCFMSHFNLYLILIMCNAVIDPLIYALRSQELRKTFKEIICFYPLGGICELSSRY

UniProt Q01727, sequence (Q01727 whole entry): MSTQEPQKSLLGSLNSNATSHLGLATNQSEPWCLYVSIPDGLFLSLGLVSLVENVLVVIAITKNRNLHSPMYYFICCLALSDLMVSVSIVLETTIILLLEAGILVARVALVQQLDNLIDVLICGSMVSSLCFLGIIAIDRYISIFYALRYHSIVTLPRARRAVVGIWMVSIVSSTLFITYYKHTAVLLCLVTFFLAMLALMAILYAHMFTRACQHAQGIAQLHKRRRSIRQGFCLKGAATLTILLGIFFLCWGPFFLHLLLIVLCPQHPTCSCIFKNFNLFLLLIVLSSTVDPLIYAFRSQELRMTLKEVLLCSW

## α-melanocyte-stimulating hormone (peptide)
[1]
  EC50 of cAMP production (EPAC BRET sensor), HEK293 cells expressing mMC1R, 3 min: 4.8 nM
[2]
  EC50 of cAMP production (EPAC BRET sensor), HEK293 cells expressing mMC4R, 3 min: 11.5 nM
